Test results published in patent US20200216522A1 (DENALI THERAPEUTICS, published 2020).

Assays:
Test in all cases: peptide array
Peptide_007 = target: T1, Peptide_007 (human)
T1 peptide: MHQDQEGDTDAGLKE
Procedure: (§1) Chimeric IgG antibodies were diluted to a concentration of 5 μg/mL in 3% bovine serum albumin in Tris-buffered saline (10 mM Tris, pH 7.5, 150 mM NaCl) supplemented with 0.05% Tween®20 (3% BSA-TBST). Diluted antibodies were allowed to bind to peptides printed onto slides for 2 hours at room temperature as described in the PepStar™ user manual (JPT Technologies). Following extensive washing (5×5 minutes with TBST), slides were incubated with secondary antibodies goat anti-human IgG, Alexa Fluor 568 conjugate, 1 μg/mL in 3% BSA-TBST) for 1 hour at room temperature. After extensive washing, (5×5 minutes with TBST, then 5×5 minutes with ultrapure water), slides were dried overnight and imaged using an Opera Phenix™ system in the 568 nm channel. Images were aligned to peptide array definition files using Galviewer software obtained from JPT Technologies and ImageJ software with control human IgG serving as landmarks.
(§2) Full-length human Tau (encoded by the microtubule-associated protein Tau isoform 2 gene (MAPT), amino acid sequence NCBI Reference Sequence No. NP_005901.2, SEQ ID NO: 1, variant designation “2N4R”) was divided into 15 amino acid peptides, offset by 5 amino acids (overlapping by 10 amino acids). Peptides were synthesized and covalently attached to silica slides in triplicate with a spot size of 0.5 mm (obtained from JPT Technologies, Berlin, Germany). Antibodies muIgG were diluted to a concentration of 30 μg/mL in 3% bovine serum albumin in Tris-buffered saline (10 mM Tris, pH 7.5, 150 mM NaCl) supplemented with 0.05% Tween® 20 (3% BSA-TBST). Diluted antibodies were allowed to bind to peptides printed onto slides for 2 hours at room temperature as described in the Pepstar™ user manual (JPT Technologies). Following extensive washing (5×5 min TBST), slides were incubated with secondary antibodies (donkey anti-mouse IgG, Alexafluor 647 conjugate, 5 μg/mL in 3% BSA-TBST) for 1 hour at room temperature. After extensive washing, (5×5 minutes TBST, 5×5 minutes ultrapure water), slides were dried under a stream of nitrogen and imaged on the Opera Phenix in the 647 nm channel. Images were aligned to peptide array definition file using Galviewer software obtained from JPT Technologies and ImageJ software with control mouse IgG serving as landmarks.

Peptide_003 = target: T2, Peptide_003 (human)
T2 peptide: MEDHAGTYGLGDRKD
Procedure: as §1, §2

Peptide_023 = target: T3, Peptide_023 (human)
T3 peptide: TPSLEDEAAGHVTQA
Procedure: as §1, §2

Peptide_020 = target: T4, Peptide_020 (human)
T4 peptide: EIPEGTTAEEAGIGD
Procedure: as §1, §2

Peptide_016 = target: T5, Peptide_016 (human)
T5 peptide: TAPLVDEGAPGKQAA
Procedure: as §1, §2

Peptide_015 = target: T6, Peptide_015 (human)
T6 peptide: TAEDVTAPLVDEGAP
Procedure: as §1, §2

Peptide_036 = target: T7, Peptide_036 (human)
T7 peptide: PPAPKTPPSSGEPPK
Procedure: as §1, §2

Peptide_034 = target: T8, Peptide_034 (human)
T8 peptide: ANATRIPAKTPPAPK
Procedure: as §1, §2

Peptide_032 = target: T9, Peptide_032 (human)
T9 peptide: GAAPPGQKGQANATR
Procedure: as §1, §2

Peptide_031 = target: T10, Peptide_031 (human)
T10 peptide: IATPRGAAPPGQKGQ
Procedure: as §1, §2

Peptide_030 = target: T11, Peptide_030 (human)
T11 peptide: DGKTKIATPRGAAPP
Procedure: as §1, §2

Peptide_026 = target: T12, Peptide_026 (human)
T12 peptide: RMVSKSKDGTGSDDK
Procedure: as §1, §2

Peptide_025 = target: T13, Peptide_025 (human)
T13 peptide: HVTQARMVSKSKDGT
Procedure: as §1, §2

process-control peptide = target: T14, process-control peptide
T14 construct: array control, not a Tau peptide
T14 peptide: GGSGGGSDYKDDDDK
Procedure: as §1, §2

Peptide_046 = target: T15, Peptide_046 (human)
T15 peptide: VAVVRTPPKSPSSAK
Procedure: as §1, §2

Peptide_042 = target: T16, Peptide_042 (human)
T16 peptide: PGSRSRTPSLPTPPT
Procedure: as §1, §2

Peptide_041 = target: T17, Peptide_041 (human)
T17 peptide: GSPGTPGSRSRTPSL
Procedure: as §1, §2

Peptide_038 = target: T18, Peptide_038 (human)
T18 peptide: GEPPKSGDRSGYSSP
Procedure: as §1, §2

Peptide_059 = target: T19, Peptide_059 (human)
T19 peptide: CGSKDNIKHVPGGGS
Procedure: as §1, §2

Peptide_058 = target: T20, Peptide_058 (human)
T20 peptide: NVQSKCGSKDNIKHV
Procedure: as §1, §2

Peptide_056 = target: T21, Peptide_056 (human)
T21 peptide: QIINKKLDLSNVQSK
Procedure: as §1, §2

Peptide_055 = target: T22, Peptide_055 (human)
T22 peptide: GGGKVQIINKKLDLS
Procedure: as §1, §2

Peptide_052 = target: T23, Peptide_052 (human)
T23 peptide: VKSKIGSTENLKHQP
Procedure: as §1, §2

Peptide_051 = target: T24, Peptide_051 (human)
T24 peptide: PDLKNVKSKIGSTEN
Procedure: as §1, §2

Peptide_050 = target: T25, Peptide_050 (human)
T25 peptide: APVPMPDLKNVKSKI
Procedure: as §1, §2

Peptide_063 = target: T26, Peptide_063 (human)
T26 peptide: KPVDLSKVTSKCGSL
Procedure: as §1, §2

Peptide_062 = target: T27, Peptide_062 (human)
T27 peptide: VQIVYKPVDLSKVTS
Procedure: as §1, §2

Peptide_061 = target: T28, Peptide_061 (human)
T28 peptide: PGGGSVQIVYKPVDL
Procedure: as §1, §2

Peptide_082 = target: T29, Peptide_082 (human)
T29 peptide: RHLSNVSSTGSIDMV
Procedure: as §1, §2

Peptide_079 = target: T30, Peptide_079 (human)
T30 peptide: EIVYKSPVVSGDTSP
Procedure: as §1, §2

Peptide_078 = target: T31, Peptide_078 (human)
T31 peptide: TDHGAEIVYKSPVVS
Procedure: as §1, §2

Peptide_077 = target: T32, Peptide_077 (human)
T32 peptide: NAKAKTDHGAEIVYK
Procedure: as §1, §2

Peptide_075 = target: T33, Peptide_075 (human)
T33 peptide: IETHKLTFRENAKAK
Procedure: as §1, §2

Peptide_072 = target: T34, Peptide_072 (human)
T34 peptide: SLDNITHVPGGGNKK
Procedure: as §1, §2

Peptide_087 = target: T35, Peptide_087 (human)
T35 peptide: TLADEVSASLAKQGL
Procedure: as §1, §2

B1: chimeric IgG clone 1A5 (antibody, V domains shown)
VH: EVQLQQSGAELVRPGASVKLSCTASGFNIKDSLIHWVKQRPEQGLEWIGWIDPEDGETKYAPKFQDKATKTADTSSNTAYLQLSSLTSEDTAIYYCASGEWDYWGQGTSVTVSS
VL: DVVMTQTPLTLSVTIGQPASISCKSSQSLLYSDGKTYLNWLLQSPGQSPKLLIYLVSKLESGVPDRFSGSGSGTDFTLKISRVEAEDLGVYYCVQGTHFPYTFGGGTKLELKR
notes: mouse-human chimeric IgG from HEK293
binding result (Peptide_007): no binding (tested: 5 ug/mL)
binding result (Peptide_003): no binding (tested: 5 ug/mL)
binding result (Peptide_023): no binding (tested: 5 ug/mL)
binding result (Peptide_020): no binding (tested: 5 ug/mL)
binding result (Peptide_016): no binding (tested: 5 ug/mL)
binding result (Peptide_015): no binding (tested: 5 ug/mL)
binding result (Peptide_036): no binding (tested: 5 ug/mL)
binding result (Peptide_034): no binding (tested: 5 ug/mL)
binding result (Peptide_032): no binding (tested: 5 ug/mL)
binding result (Peptide_031): no binding (tested: 5 ug/mL)
binding result (Peptide_030): no binding (tested: 5 ug/mL)
binding result (Peptide_026): no binding (tested: 5 ug/mL)
binding result (Peptide_025): no binding (tested: 5 ug/mL)
binding result (process-control peptide): no binding (tested: 5 ug/mL)
binding result (Peptide_046): no binding (tested: 5 ug/mL)
binding result (Peptide_042): no binding (tested: 5 ug/mL)
binding result (Peptide_041): no binding (tested: 5 ug/mL)
binding result (Peptide_038): no binding (tested: 5 ug/mL)
binding result (Peptide_059): no binding (tested: 5 ug/mL)
binding result (Peptide_058): no binding (tested: 5 ug/mL)
binding result (Peptide_056): no binding (tested: 5 ug/mL)
binding result (Peptide_055): no binding (tested: 5 ug/mL)
binding result (Peptide_052): binds
binding result (Peptide_051): binds
binding result (Peptide_050): no binding (tested: 5 ug/mL)
binding result (Peptide_063): no binding (tested: 5 ug/mL)
binding result (Peptide_062): no binding (tested: 5 ug/mL)
binding result (Peptide_061): no binding (tested: 5 ug/mL)
binding result (Peptide_082): no binding (tested: 5 ug/mL)
binding result (Peptide_079): no binding (tested: 5 ug/mL)
binding result (Peptide_078): no binding (tested: 5 ug/mL)
binding result (Peptide_077): no binding (tested: 5 ug/mL)
binding result (Peptide_075): no binding (tested: 5 ug/mL)
binding result (Peptide_072): no binding (tested: 5 ug/mL)
binding result (Peptide_087): no binding (tested: 5 ug/mL)

B2: chimeric IgG clone 1A1 (antibody, V domains shown)
VH: EVQLQQSGAELVRPGASVRLSCTASGFNIKDSLMHWLKQRPEQGLEWIGWIDPEDGETKYAPKFQDKATITADTSSNTAYLQLSSLTSEDTAIYYCTRRDWEGPWGQGTLVTVSA
VL: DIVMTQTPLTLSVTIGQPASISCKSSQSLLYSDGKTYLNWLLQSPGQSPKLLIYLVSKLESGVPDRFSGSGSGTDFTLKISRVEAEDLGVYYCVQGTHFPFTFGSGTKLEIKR
notes: mouse-human chimeric IgG from HEK293; also called anti-Tau 1A1; anti-Tau^1A1
binding result (Peptide_007): no binding (tested: 5 ug/mL)
binding result (Peptide_003): no binding (tested: 5 ug/mL)
binding result (Peptide_023): no binding (tested: 5 ug/mL)
binding result (Peptide_020): no binding (tested: 5 ug/mL)
binding result (Peptide_016): no binding (tested: 5 ug/mL)
binding result (Peptide_015): no binding (tested: 5 ug/mL)
binding result (Peptide_036): no binding (tested: 5 ug/mL)
binding result (Peptide_034): no binding (tested: 5 ug/mL)
binding result (Peptide_032): no binding (tested: 5 ug/mL)
binding result (Peptide_031): no binding (tested: 5 ug/mL)
binding result (Peptide_030): no binding (tested: 5 ug/mL)
binding result (Peptide_026): no binding (tested: 5 ug/mL)
binding result (Peptide_025): no binding (tested: 5 ug/mL)
binding result (process-control peptide): no binding (tested: 5 ug/mL)
binding result (Peptide_046): no binding (tested: 5 ug/mL)
binding result (Peptide_042): no binding (tested: 5 ug/mL)
binding result (Peptide_041): no binding (tested: 5 ug/mL)
binding result (Peptide_038): no binding (tested: 5 ug/mL)
binding result (Peptide_059): no binding (tested: 5 ug/mL)
binding result (Peptide_058): no binding (tested: 5 ug/mL)
binding result (Peptide_056): no binding (tested: 5 ug/mL)
binding result (Peptide_055): no binding (tested: 5 ug/mL)
binding result (Peptide_052): binds
binding result (Peptide_051): binds
binding result (Peptide_050): no binding (tested: 5 ug/mL)
binding result (Peptide_063): no binding (tested: 5 ug/mL)
binding result (Peptide_062): no binding (tested: 5 ug/mL)
binding result (Peptide_061): no binding (tested: 5 ug/mL)
binding result (Peptide_082): no binding (tested: 5 ug/mL)
binding result (Peptide_079): no binding (tested: 5 ug/mL)
binding result (Peptide_078): no binding (tested: 5 ug/mL)
binding result (Peptide_077): no binding (tested: 5 ug/mL)
binding result (Peptide_075): no binding (tested: 5 ug/mL)
binding result (Peptide_072): no binding (tested: 5 ug/mL)
binding result (Peptide_087): no binding (tested: 5 ug/mL)

B3: chimeric IgG clone 1G7 (antibody, V domains shown)
VH: EVQLQQSGAEVVRPGASVKLSCTTSGFNIKDSLMHWLKQRPEQGLEWIGWIDPEDGETKYAPKFQDKATITADTSSNTAYLQLSSLTSGDTAIYYCARRDWEGPWGQGTLVTVSA
VL: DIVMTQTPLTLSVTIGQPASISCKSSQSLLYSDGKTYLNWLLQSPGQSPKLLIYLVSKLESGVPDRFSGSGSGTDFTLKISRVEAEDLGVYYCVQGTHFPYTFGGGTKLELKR
notes: as for B1
binding result (Peptide_007): no binding (tested: 5 ug/mL)
binding result (Peptide_003): no binding (tested: 5 ug/mL)
binding result (Peptide_023): no binding (tested: 5 ug/mL)
binding result (Peptide_020): no binding (tested: 5 ug/mL)
binding result (Peptide_016): no binding (tested: 5 ug/mL)
binding result (Peptide_015): no binding (tested: 5 ug/mL)
binding result (Peptide_036): no binding (tested: 5 ug/mL)
binding result (Peptide_034): no binding (tested: 5 ug/mL)
binding result (Peptide_032): no binding (tested: 5 ug/mL)
binding result (Peptide_031): no binding (tested: 5 ug/mL)
binding result (Peptide_030): no binding (tested: 5 ug/mL)
binding result (Peptide_026): no binding (tested: 5 ug/mL)
binding result (Peptide_025): no binding (tested: 5 ug/mL)
binding result (process-control peptide): no binding (tested: 5 ug/mL)
binding result (Peptide_046): no binding (tested: 5 ug/mL)
binding result (Peptide_042): no binding (tested: 5 ug/mL)
binding result (Peptide_041): no binding (tested: 5 ug/mL)
binding result (Peptide_038): no binding (tested: 5 ug/mL)
binding result (Peptide_059): no binding (tested: 5 ug/mL)
binding result (Peptide_058): no binding (tested: 5 ug/mL)
binding result (Peptide_056): no binding (tested: 5 ug/mL)
binding result (Peptide_055): no binding (tested: 5 ug/mL)
binding result (Peptide_052): binds
binding result (Peptide_051): binds
binding result (Peptide_050): no binding (tested: 5 ug/mL)
binding result (Peptide_063): no binding (tested: 5 ug/mL)
binding result (Peptide_062): no binding (tested: 5 ug/mL)
binding result (Peptide_061): no binding (tested: 5 ug/mL)
binding result (Peptide_082): no binding (tested: 5 ug/mL)
binding result (Peptide_079): no binding (tested: 5 ug/mL)
binding result (Peptide_078): no binding (tested: 5 ug/mL)
binding result (Peptide_077): no binding (tested: 5 ug/mL)
binding result (Peptide_075): no binding (tested: 5 ug/mL)
binding result (Peptide_072): no binding (tested: 5 ug/mL)
binding result (Peptide_087): no binding (tested: 5 ug/mL)
